Test results from patent US20200131230A1 (published 2020).
Where two headings read alike, the source gives them in different places. Positions of bridges follow the written chain, without caps; N, C: chain ends. Non-standard residues stand in square brackets, D forms with d. 2Nal = N[C@@H](Cc1ccc2ccccc2c1)C(=O)O; Phg = N[C@H](C(=O)O)c1ccccc1; Tle = CC(C)(C)[C@H](N)C(=O)O; Nle = CCCC[C@H](N)C(=O)O; AMF = not defined here

B1: Compound 3 (peptide)
peptide: {CH2CO}-FISGRNWVKWVC-NH2
modifications: thioether N-12
SMILES: CC[C@H](C)[C@@H]1NC(=O)[C@H](Cc2ccccc2)NC(=O)CSC[C@@H](C(N)=O)NC(=O)[C@H](C(C)C)NC(=O)[C@H](Cc2c[nH]c3ccccc23)NC(=O)[C@H](CCCCN)NC(=O)[C@H](C(C)C)NC(=O)[C@H](Cc2c[nH]c3ccccc23)NC(=O)[C@H](CC(N)=O)NC(=O)[C@H](CCCNC(=N)N)NC(=O)CNC(=O)[C@H](CO)NC1=O
B2: Compound 1 (peptide)
peptide: {CH2CO}-FISGRNWVVWVC-NH2
modifications: thioether N-12
SMILES: CC[C@H](C)[C@@H]1NC(=O)[C@H](Cc2ccccc2)NC(=O)CSC[C@@H](C(N)=O)NC(=O)[C@H](C(C)C)NC(=O)[C@H](Cc2c[nH]c3ccccc23)NC(=O)[C@H](C(C)C)NC(=O)[C@H](C(C)C)NC(=O)[C@H](Cc2c[nH]c3ccccc23)NC(=O)[C@H](CC(N)=O)NC(=O)[C@H](CCCNC(=N)N)NC(=O)CNC(=O)[C@H](CO)NC1=O
B3: Compound 2 (peptide)
peptide: {CH2CO}-FRSGRNWVVWVC-NH2
modifications: thioether N-12
SMILES: CC(C)[C@@H]1NC(=O)[C@H](Cc2c[nH]c3ccccc23)NC(=O)[C@H](C(C)C)NC(=O)[C@H](C(C)C)NC(=O)[C@H](Cc2c[nH]c3ccccc23)NC(=O)[C@H](CC(N)=O)NC(=O)[C@H](CCCNC(=N)N)NC(=O)CNC(=O)[C@H](CO)NC(=O)[C@H](CCCNC(=N)N)NC(=O)[C@H](Cc2ccccc2)NC(=O)CSC[C@@H](C(N)=O)NC1=O
B4: Compound 4 (peptide)
peptide: {CH2CO}-FISGRNWVRWVC-NH2
modifications: thioether N-12
SMILES: CC[C@H](C)[C@@H]1NC(=O)[C@H](Cc2ccccc2)NC(=O)CSC[C@@H](C(N)=O)NC(=O)[C@H](C(C)C)NC(=O)[C@H](Cc2c[nH]c3ccccc23)NC(=O)[C@H](CCCNC(=N)N)NC(=O)[C@H](C(C)C)NC(=O)[C@H](Cc2c[nH]c3ccccc23)NC(=O)[C@H](CC(N)=O)NC(=O)[C@H](CCCNC(=N)N)NC(=O)CNC(=O)[C@H](CO)NC1=O
B5: Compound 5 (peptide)
peptide: {CH2CO}-FISGRNWVRWRC-NH2
modifications: thioether N-12
SMILES: CC[C@H](C)[C@@H]1NC(=O)[C@H](Cc2ccccc2)NC(=O)CSC[C@@H](C(N)=O)NC(=O)[C@H](CCCNC(=N)N)NC(=O)[C@H](Cc2c[nH]c3ccccc23)NC(=O)[C@H](CCCNC(=N)N)NC(=O)[C@H](C(C)C)NC(=O)[C@H](Cc2c[nH]c3ccccc23)NC(=O)[C@H](CC(N)=O)NC(=O)[C@H](CCCNC(=N)N)NC(=O)CNC(=O)[C@H](CO)NC1=O
B6: Compound 6 (peptide)
peptide: {CH2CO}-FRSGRNWVKWVC-NH2
modifications: thioether N-12
SMILES: CC(C)[C@@H]1NC(=O)[C@H](Cc2c[nH]c3ccccc23)NC(=O)[C@H](CCCCN)NC(=O)[C@H](C(C)C)NC(=O)[C@H](Cc2c[nH]c3ccccc23)NC(=O)[C@H](CC(N)=O)NC(=O)[C@H](CCCNC(=N)N)NC(=O)CNC(=O)[C@H](CO)NC(=O)[C@H](CCCNC(=N)N)NC(=O)[C@H](Cc2ccccc2)NC(=O)CSC[C@@H](C(N)=O)NC1=O
B7: Compound 7 (peptide)
peptide: {CH2CO}-FISGKNWVKWVC-NH2
modifications: thioether N-12
SMILES: CC[C@H](C)[C@@H]1NC(=O)[C@H](Cc2ccccc2)NC(=O)CSC[C@@H](C(N)=O)NC(=O)[C@H](C(C)C)NC(=O)[C@H](Cc2c[nH]c3ccccc23)NC(=O)[C@H](CCCCN)NC(=O)[C@H](C(C)C)NC(=O)[C@H](Cc2c[nH]c3ccccc23)NC(=O)[C@H](CC(N)=O)NC(=O)[C@H](CCCCN)NC(=O)CNC(=O)[C@H](CO)NC1=O
B8: Compound 9 (peptide)
peptide: {CH2CO}-WISGRNWVKWVC-NH2
modifications: thioether N-12
SMILES: CC[C@H](C)[C@@H]1NC(=O)[C@H](Cc2c[nH]c3ccccc23)NC(=O)CSC[C@@H](C(N)=O)NC(=O)[C@H](C(C)C)NC(=O)[C@H](Cc2c[nH]c3ccccc23)NC(=O)[C@H](CCCCN)NC(=O)[C@H](C(C)C)NC(=O)[C@H](Cc2c[nH]c3ccccc23)NC(=O)[C@H](CC(N)=O)NC(=O)[C@H](CCCNC(=N)N)NC(=O)CNC(=O)[C@H](CO)NC1=O
B9: Compound 10 (peptide)
peptide: {CH2CO}-FISGKNWVRWVC-NH2
modifications: thioether N-12
SMILES: CC[C@H](C)[C@@H]1NC(=O)[C@H](Cc2ccccc2)NC(=O)CSC[C@@H](C(N)=O)NC(=O)[C@H](C(C)C)NC(=O)[C@H](Cc2c[nH]c3ccccc23)NC(=O)[C@H](CCCNC(=N)N)NC(=O)[C@H](C(C)C)NC(=O)[C@H](Cc2c[nH]c3ccccc23)NC(=O)[C@H](CC(N)=O)NC(=O)[C@H](CCCCN)NC(=O)CNC(=O)[C@H](CO)NC1=O
B10: Compound 11 (peptide)
peptide: {CH2CO}-WISGRNWVRWVC-NH2
modifications: thioether N-12
SMILES: CC[C@H](C)[C@@H]1NC(=O)[C@H](Cc2c[nH]c3ccccc23)NC(=O)CSC[C@@H](C(N)=O)NC(=O)[C@H](C(C)C)NC(=O)[C@H](Cc2c[nH]c3ccccc23)NC(=O)[C@H](CCCNC(=N)N)NC(=O)[C@H](C(C)C)NC(=O)[C@H](Cc2c[nH]c3ccccc23)NC(=O)[C@H](CC(N)=O)NC(=O)[C@H](CCCNC(=N)N)NC(=O)CNC(=O)[C@H](CO)NC1=O
B11: Compound 12 (peptide)
peptide: {CH2CO}-FITGRNWVKWVC-NH2
modifications: thioether N-12
SMILES: CC[C@H](C)[C@@H]1NC(=O)[C@H](Cc2ccccc2)NC(=O)CSC[C@@H](C(N)=O)NC(=O)[C@H](C(C)C)NC(=O)[C@H](Cc2c[nH]c3ccccc23)NC(=O)[C@H](CCCCN)NC(=O)[C@H](C(C)C)NC(=O)[C@H](Cc2c[nH]c3ccccc23)NC(=O)[C@H](CC(N)=O)NC(=O)[C@H](CCCNC(=N)N)NC(=O)CNC(=O)[C@H]([C@@H](C)O)NC1=O
B12: Compound 13 (peptide)
peptide: {CH2CO}-FISGRTWVKWVC-NH2
modifications: thioether N-12
SMILES: CC[C@H](C)[C@@H]1NC(=O)[C@H](Cc2ccccc2)NC(=O)CSC[C@@H](C(N)=O)NC(=O)[C@H](C(C)C)NC(=O)[C@H](Cc2c[nH]c3ccccc23)NC(=O)[C@H](CCCCN)NC(=O)[C@H](C(C)C)NC(=O)[C@H](Cc2c[nH]c3ccccc23)NC(=O)[C@H]([C@@H](C)O)NC(=O)[C@H](CCCNC(=N)N)NC(=O)CNC(=O)[C@H](CO)NC1=O
B13: Compound 48 (peptide)
peptide: {CH2CO}-[2Nal][Nle]SGRNWVKWVC-NH2
modifications: thioether N-12
SMILES: CCCC[C@@H]1NC(=O)[C@H](Cc2ccc3ccccc3c2)NC(=O)CSC[C@@H](C(N)=O)NC(=O)[C@H](C(C)C)NC(=O)[C@H](Cc2c[nH]c3ccccc23)NC(=O)[C@H](CCCCN)NC(=O)[C@H](C(C)C)NC(=O)[C@H](Cc2c[nH]c3ccccc23)NC(=O)[C@H](CC(N)=O)NC(=O)[C@H](CCCNC(=N)N)NC(=O)CNC(=O)[C@H](CO)NC1=O
B14: Compound 49 (peptide)
peptide: {CH2CO}-[2Nal][Phg]SGRNWVKWVC-NH2
modifications: thioether N-12
SMILES: CC(C)[C@@H]1NC(=O)[C@H](Cc2c[nH]c3ccccc23)NC(=O)[C@H](CCCCN)NC(=O)[C@H](C(C)C)NC(=O)[C@H](Cc2c[nH]c3ccccc23)NC(=O)[C@H](CC(N)=O)NC(=O)[C@H](CCCNC(=N)N)NC(=O)CNC(=O)[C@H](CO)NC(=O)[C@H](c2ccccc2)NC(=O)[C@H](Cc2ccc3ccccc3c2)NC(=O)CSC[C@@H](C(N)=O)NC1=O
B15: Compound 50 (peptide)
peptide: {CH2CO}-[2Nal][Tle]SGRNWVKWVC-NH2
modifications: thioether N-12
SMILES: CC(C)[C@@H]1NC(=O)[C@H](Cc2c[nH]c3ccccc23)NC(=O)[C@H](CCCCN)NC(=O)[C@H](C(C)C)NC(=O)[C@H](Cc2c[nH]c3ccccc23)NC(=O)[C@H](CC(N)=O)NC(=O)[C@H](CCCNC(=N)N)NC(=O)CNC(=O)[C@H](CO)NC(=O)[C@H](C(C)(C)C)NC(=O)[C@H](Cc2ccc3ccccc3c2)NC(=O)CSC[C@@H](C(N)=O)NC1=O

Key:
[1] = target: T1, Thrombospondin human platelet (Calbiochem, 605225) (human, UniProt P07996 19-1170); experiment: cell-based or functional assay
Recombinant-hTSP1 = Recombinant-hTSP1 (human, UniProt P07996 19-1170, limits assumed); experiment: SPR (Biacore T200), single-cycle kinetics, recombinant hTSP1 immobilised on NTA chip
Experimental: First, 500 μM NiCl₂ was injected over an NTA-Chip (produced by GE Healthcare, BR100532) at a flow rate of 5 μL/min. for 1 minute to thereby activate NTA groups. Then, an EDC/NHS mixture was injected at a flow rate of 10 μL/min. for 7 minutes to thereby activate the carboxyl groups of dextran. Recombinant-hTSP1 was injected at a flow rate of 10 μL/min. for 7 minutes to immobilize the TSP1 on the substrate surfaces with activated NTA and carboxyl groups. Ethanolamine was injected at a flow rate of 10 μL/min. for 7 minutes to thereby deactivate unreacted, activated carboxyl groups.
Since Biacore T200 is highly responsive to change in DMSO concentrations, DMSO solutions were sequentially injected at concentrations of 4%, 4.4%, 4.8%, 5.2%, 5.6%, and 6% to correct for DMSO effects.
The analysis was conducted using the evaluation software provided with Biacore T100 and T200. A DMSO correction curve obtained by solvent correction measurements was applied for the analysis. Kinetics fitting was done on the difference data obtained by subtracting the baseline data from sample measurement data.

[2] = target: T1, Thrombospondin human platelet …; experiment: cell-based or functional assay; remark: listed apart in the source

Chain of Recombinant-hTSP1 (P07996 19-1170 limits assumed): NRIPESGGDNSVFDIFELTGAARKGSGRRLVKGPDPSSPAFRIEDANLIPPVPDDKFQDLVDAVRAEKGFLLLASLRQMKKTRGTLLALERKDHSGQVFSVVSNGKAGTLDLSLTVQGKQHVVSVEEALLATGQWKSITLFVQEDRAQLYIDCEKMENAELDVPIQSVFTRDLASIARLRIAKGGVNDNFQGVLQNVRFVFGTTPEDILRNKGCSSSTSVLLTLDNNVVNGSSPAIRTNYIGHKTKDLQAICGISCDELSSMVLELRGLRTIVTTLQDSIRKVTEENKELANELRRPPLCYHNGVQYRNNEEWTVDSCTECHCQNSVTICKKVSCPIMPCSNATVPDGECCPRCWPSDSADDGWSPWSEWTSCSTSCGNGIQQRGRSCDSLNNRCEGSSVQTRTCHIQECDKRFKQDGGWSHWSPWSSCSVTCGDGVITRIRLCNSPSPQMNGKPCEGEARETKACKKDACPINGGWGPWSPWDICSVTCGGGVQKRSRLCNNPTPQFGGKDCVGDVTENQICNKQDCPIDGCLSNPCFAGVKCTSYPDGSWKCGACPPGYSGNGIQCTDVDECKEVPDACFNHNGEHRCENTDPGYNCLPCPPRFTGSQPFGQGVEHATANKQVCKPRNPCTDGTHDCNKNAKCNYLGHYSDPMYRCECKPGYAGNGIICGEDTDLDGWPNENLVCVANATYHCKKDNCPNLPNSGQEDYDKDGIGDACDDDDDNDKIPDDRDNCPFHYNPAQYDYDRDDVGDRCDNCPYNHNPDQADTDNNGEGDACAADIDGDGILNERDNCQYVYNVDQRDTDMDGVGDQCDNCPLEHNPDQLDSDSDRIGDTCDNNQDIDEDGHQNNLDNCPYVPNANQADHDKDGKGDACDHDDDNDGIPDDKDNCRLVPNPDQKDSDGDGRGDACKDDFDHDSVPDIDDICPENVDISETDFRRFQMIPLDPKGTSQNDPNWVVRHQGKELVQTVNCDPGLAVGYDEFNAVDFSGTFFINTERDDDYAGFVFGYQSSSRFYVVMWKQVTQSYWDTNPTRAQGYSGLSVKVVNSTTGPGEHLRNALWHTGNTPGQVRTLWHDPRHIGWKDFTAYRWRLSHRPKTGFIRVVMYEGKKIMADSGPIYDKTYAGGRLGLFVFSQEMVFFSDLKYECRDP
T1 sequence (P07996 19-1170 limits assumed): as above

Binder	Cell adhesion IC50 [1]	Kd (Recombinant-hTSP1)	Cell adhesion IC50 [2]
B1	20.8 nM	0.25 nM	
B2	34.9 nM	0.51 nM	
B3	25.5 nM	0.15 nM	
B4	11.2 nM	0.26 nM	
B5	33.4 nM	0.9 nM	
B6	27.3 nM	0.44 nM	
B7	20.6 nM	0.12 nM	
B8	27.3 nM	0.23 nM	
B9	10.9 nM	0.091 nM	
B10	26.3 nM	0.14 nM	
B11	22.2 nM	0.38 nM	
B12	18.7 nM	0.096 nM	
{CH2CO}-FISGRNWV[3MH]WVC-NH2 (thioether N-12) [Compound 46]			30.3 nM
{CH2CO}-FISGRNWV[AMF]WVC-NH2 (thioether N-12; reading uncertain) [Compound 47]			16.7 nM
B13			10.4 nM
B14			11.5 nM
B15			11.6 nM
